Test results as given in the supplement of paper PMC9233669.
Variants at the floor of the assay were thinned out.

How the values were obtained:
biotinyl-Ile-oxazolone = experiment: self-aminoacylation, catalytic enhancement (BIO) (fold over background); higher = more active; k-Seq, kA / k0A0; sequences stand for … in GGGAAUGGAUCCACAUCUACGAAUUC…UUCACUGCAGACUUGACGAAGCUG
In short: (§1)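 Mutagenized RNA pools with a 21-nt variable region (0.43 μM) were reacted with each biotinyl-aminoacyl-oxazolone at 2–1250 μM for 90 minutes at room temperature, in 50 μL HEPES/NaCl/KCl/MgCl2/CaCl2 buffer containing 5% acetonitrile at pH 6.9–7.0. RNA captured on streptavidin was quantified by triplicate qPCR and by Illumina sequencing. The fraction reacted for each sequence was fit to a pseudo-first-order model with bootstrapping, and catalytic enhancement is the median kA divided by the uncatalyzed rate, taken as the low-activity peak of a bimodal Gaussian fit.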

biotinyl-Met-oxazolone = experiment: self-aminoacylation, catalytic enhancement (BMO) (fold over background); higher = more active; k-Seq, kA / k0A0; sequences stand for … in GGGAAUGGAUCCACAUCUACGAAUUC…UUCACUGCAGACUUGACGAAGCUG
In short: as §1

biotinyl-Trp-oxazolone = experiment: self-aminoacylation, catalytic enhancement (BWO) (fold over background); higher = more active; k-Seq, kA / k0A0; sequences stand for … in GGGAAUGGAUCCACAUCUACGAAUUC…UUCACUGCAGACUUGACGAAGCUG
In short: as §1

biotinyl-Val-oxazolone = experiment: self-aminoacylation, catalytic enhancement (BVO) (fold over background); higher = more active; k-Seq, kA / k0A0; sequences stand for … in GGGAAUGGAUCCACAUCUACGAAUUC…UUCACUGCAGACUUGACGAAGCUG
In short: as §1

biotinyl-Leu-oxazolone = experiment: self-aminoacylation, catalytic enhancement (BLO) (fold over background); higher = more active; k-Seq, kA / k0A0; sequences stand for … in GGGAAUGGAUCCACAUCUACGAAUUC…UUCACUGCAGACUUGACGAAGCUG
In short: as §1

biotinyl-Phe-oxazolone = experiment: self-aminoacylation, catalytic enhancement (BFO) (fold over background); higher = more active; k-Seq, kA / k0A0; sequences stand for … in GGGAAUGGAUCCACAUCUACGAAUUC…UUCACUGCAGACUUGACGAAGCUG
In short: as §1

AAGUGUGCUAAUAGUCUCAAG [Fam3.1 aminoacylation ribozyme variant]
self-aminoacylation (biotinyl-Ile-oxazolone): 1.26
self-aminoacylation (biotinyl-Met-oxazolone): 1.4
self-aminoacylation (biotinyl-Trp-oxazolone): 2.73
self-aminoacylation (biotinyl-Val-oxazolone): 1.62
self-aminoacylation (biotinyl-Leu-oxazolone): 1.44
self-aminoacylation (biotinyl-Phe-oxazolone): 8.7

AAGUGUUCUAAUAGUCGCAAG [Fam3.1 aminoacylation ribozyme variant]
self-aminoacylation (biotinyl-Ile-oxazolone): 1.6
self-aminoacylation (biotinyl-Met-oxazolone): 1.7
self-aminoacylation (biotinyl-Trp-oxazolone): 1.54
self-aminoacylation (biotinyl-Val-oxazolone): 1.32
self-aminoacylation (biotinyl-Leu-oxazolone): 1.64
self-aminoacylation (biotinyl-Phe-oxazolone): 2.39

AAGUUAGCUAAUAAUCGCAAG [Fam3.1 aminoacylation ribozyme variant]
self-aminoacylation (biotinyl-Ile-oxazolone): 1.77
self-aminoacylation (biotinyl-Met-oxazolone): 1.3
self-aminoacylation (biotinyl-Trp-oxazolone): 1.12
self-aminoacylation (biotinyl-Val-oxazolone): 1.26
self-aminoacylation (biotinyl-Leu-oxazolone): 1.38
self-aminoacylation (biotinyl-Phe-oxazolone): 2

AAGUUAGCUAAUAGUCGCAAG [Fam3.1 aminoacylation ribozyme variant]
self-aminoacylation (biotinyl-Ile-oxazolone): 1.78
self-aminoacylation (biotinyl-Met-oxazolone): 1.6
self-aminoacylation (biotinyl-Trp-oxazolone): 2.21
self-aminoacylation (biotinyl-Val-oxazolone): 1.49
self-aminoacylation (biotinyl-Leu-oxazolone): 1.52
self-aminoacylation (biotinyl-Phe-oxazolone): 5.25

AAGUUAGCUAAUAGUCGCAGG [Fam3.1 aminoacylation ribozyme variant]
self-aminoacylation (biotinyl-Ile-oxazolone): 1.76
self-aminoacylation (biotinyl-Met-oxazolone): 1.6
self-aminoacylation (biotinyl-Trp-oxazolone): 1.77
self-aminoacylation (biotinyl-Val-oxazolone): 1.8
self-aminoacylation (biotinyl-Leu-oxazolone): 1.62
self-aminoacylation (biotinyl-Phe-oxazolone): 4.27

AAGUUAGCUAAUAGUCGCCAG [Fam3.1 aminoacylation ribozyme variant]
self-aminoacylation (biotinyl-Ile-oxazolone): 1.91
self-aminoacylation (biotinyl-Met-oxazolone): 2.09
self-aminoacylation (biotinyl-Trp-oxazolone): 3.82
self-aminoacylation (biotinyl-Val-oxazolone): 1.33
self-aminoacylation (biotinyl-Leu-oxazolone): 1.67
self-aminoacylation (biotinyl-Phe-oxazolone): 1.48

AAGUUAGCUAAUAGUCUCAAG [Fam3.1 aminoacylation ribozyme variant]
self-aminoacylation (biotinyl-Ile-oxazolone): 1.26
self-aminoacylation (biotinyl-Met-oxazolone): 1.22
self-aminoacylation (biotinyl-Trp-oxazolone): 1.69
self-aminoacylation (biotinyl-Val-oxazolone): 1.27
self-aminoacylation (biotinyl-Leu-oxazolone): 0.902
self-aminoacylation (biotinyl-Phe-oxazolone): 2.11

AAGUUCACUAAUAGUCGCAAG [Fam3.1 aminoacylation ribozyme variant]
self-aminoacylation (biotinyl-Ile-oxazolone): 1.96
self-aminoacylation (biotinyl-Met-oxazolone): 1.37
self-aminoacylation (biotinyl-Trp-oxazolone): 2.23
self-aminoacylation (biotinyl-Val-oxazolone): 1.86
self-aminoacylation (biotinyl-Leu-oxazolone): 1.8
self-aminoacylation (biotinyl-Phe-oxazolone): 2.72

AAGUUCGAUAAUAGUCGCAAG [Fam3.1 aminoacylation ribozyme variant]
self-aminoacylation (biotinyl-Ile-oxazolone): 1.44
self-aminoacylation (biotinyl-Met-oxazolone): 1.39
self-aminoacylation (biotinyl-Trp-oxazolone): 1.33
self-aminoacylation (biotinyl-Val-oxazolone): 1.28
self-aminoacylation (biotinyl-Leu-oxazolone): 1.55
self-aminoacylation (biotinyl-Phe-oxazolone): 2.51

AAGUUCGCAAAUAGUCGCAAG [Fam3.1 aminoacylation ribozyme variant]
self-aminoacylation (biotinyl-Ile-oxazolone): 1.84
self-aminoacylation (biotinyl-Met-oxazolone): 2.13
self-aminoacylation (biotinyl-Trp-oxazolone): 1.42
self-aminoacylation (biotinyl-Val-oxazolone): 1.44
self-aminoacylation (biotinyl-Leu-oxazolone): 2.86
self-aminoacylation (biotinyl-Phe-oxazolone): 3.4

AAGUUCGCUAACAGUCGCAAG [Fam3.1 aminoacylation ribozyme variant]
self-aminoacylation (biotinyl-Ile-oxazolone): 1.45
self-aminoacylation (biotinyl-Met-oxazolone): 1.36
self-aminoacylation (biotinyl-Trp-oxazolone): 1.06
self-aminoacylation (biotinyl-Val-oxazolone): 1.33
self-aminoacylation (biotinyl-Leu-oxazolone): 1.81
self-aminoacylation (biotinyl-Phe-oxazolone): 2.24

AAGUUCGCUAAUAAUCGCAAG [Fam3.1 aminoacylation ribozyme variant]
self-aminoacylation (biotinyl-Ile-oxazolone): 1.24
self-aminoacylation (biotinyl-Met-oxazolone): 1.24
self-aminoacylation (biotinyl-Trp-oxazolone): 0.758
self-aminoacylation (biotinyl-Val-oxazolone): 1.31
self-aminoacylation (biotinyl-Leu-oxazolone): 1.02
self-aminoacylation (biotinyl-Phe-oxazolone): 1.54

AAGUUCGCUAAUAGUGGCAAG [Fam3.1 aminoacylation ribozyme variant]
self-aminoacylation (biotinyl-Ile-oxazolone): 0.737
self-aminoacylation (biotinyl-Met-oxazolone): 0.601
self-aminoacylation (biotinyl-Trp-oxazolone): 0.444
self-aminoacylation (biotinyl-Val-oxazolone): 0.56
self-aminoacylation (biotinyl-Leu-oxazolone): 0.8
self-aminoacylation (biotinyl-Phe-oxazolone): 0.484

AAGUUCGCUAAUAUUCGCAAG [Fam3.1 aminoacylation ribozyme variant]
self-aminoacylation (biotinyl-Ile-oxazolone): 1.71
self-aminoacylation (biotinyl-Met-oxazolone): 1.36
self-aminoacylation (biotinyl-Trp-oxazolone): 1.25
self-aminoacylation (biotinyl-Val-oxazolone): 1.65
self-aminoacylation (biotinyl-Leu-oxazolone): 1.84
self-aminoacylation (biotinyl-Phe-oxazolone): 2.16

AAGUUCGCUAAUGGUCGCAAG [Fam3.1 aminoacylation ribozyme variant]
self-aminoacylation (biotinyl-Ile-oxazolone): 1.55
self-aminoacylation (biotinyl-Met-oxazolone): 1.33
self-aminoacylation (biotinyl-Trp-oxazolone): 1.62
self-aminoacylation (biotinyl-Val-oxazolone): 1.5
self-aminoacylation (biotinyl-Leu-oxazolone): 1.8
self-aminoacylation (biotinyl-Phe-oxazolone): 4.06

AAGUUCGCUCAUAGUCGCAAG [Fam3.1 aminoacylation ribozyme variant]
self-aminoacylation (biotinyl-Ile-oxazolone): 2.23
self-aminoacylation (biotinyl-Met-oxazolone): 2.01
self-aminoacylation (biotinyl-Trp-oxazolone): 2.26
self-aminoacylation (biotinyl-Val-oxazolone): 1.77
self-aminoacylation (biotinyl-Leu-oxazolone): 1.96
self-aminoacylation (biotinyl-Phe-oxazolone): 7.56

AAGUUGGAUAAUAGUCGCAAG [Fam3.1 aminoacylation ribozyme variant]
self-aminoacylation (biotinyl-Ile-oxazolone): 1.17
self-aminoacylation (biotinyl-Met-oxazolone): 1.11
self-aminoacylation (biotinyl-Trp-oxazolone): 1.12
self-aminoacylation (biotinyl-Val-oxazolone): 1.01
self-aminoacylation (biotinyl-Leu-oxazolone): 0.984
self-aminoacylation (biotinyl-Phe-oxazolone): 1.31

AAGUUGGCAAAUAGUCGCAAG [Fam3.1 aminoacylation ribozyme variant]
self-aminoacylation (biotinyl-Ile-oxazolone): 1.57
self-aminoacylation (biotinyl-Met-oxazolone): 1.04
self-aminoacylation (biotinyl-Trp-oxazolone): 2.03
self-aminoacylation (biotinyl-Val-oxazolone): 1.41
self-aminoacylation (biotinyl-Leu-oxazolone): 1.32
self-aminoacylation (biotinyl-Phe-oxazolone): 2.07

AAGUUGGCGAAUAGUCGCAAG [Fam3.1 aminoacylation ribozyme variant]
self-aminoacylation (biotinyl-Ile-oxazolone): 1.78
self-aminoacylation (biotinyl-Met-oxazolone): 1.64
self-aminoacylation (biotinyl-Trp-oxazolone): 2.72
self-aminoacylation (biotinyl-Val-oxazolone): 1.78
self-aminoacylation (biotinyl-Leu-oxazolone): 1.51
self-aminoacylation (biotinyl-Phe-oxazolone): 2.86

AAGUUGGCUAAUGGUCGCAAG [Fam3.1 aminoacylation ribozyme variant]
self-aminoacylation (biotinyl-Ile-oxazolone): 1.29
self-aminoacylation (biotinyl-Met-oxazolone): 1.28
self-aminoacylation (biotinyl-Trp-oxazolone): 1.23
self-aminoacylation (biotinyl-Val-oxazolone): 1.4
self-aminoacylation (biotinyl-Leu-oxazolone): 1.1
self-aminoacylation (biotinyl-Phe-oxazolone): 1.01

AAGUUUACUAAUAGUCACAAG [Fam3.1 aminoacylation ribozyme variant]
self-aminoacylation (biotinyl-Ile-oxazolone): 1.74
self-aminoacylation (biotinyl-Met-oxazolone): 1.33
self-aminoacylation (biotinyl-Trp-oxazolone): 1.39
self-aminoacylation (biotinyl-Val-oxazolone): 1.44
self-aminoacylation (biotinyl-Leu-oxazolone): 1.33
self-aminoacylation (biotinyl-Phe-oxazolone): 2.55

AAGUUUACUAAUAGUCGCAAA [Fam3.1 aminoacylation ribozyme variant]
self-aminoacylation (biotinyl-Ile-oxazolone): 1.95
self-aminoacylation (biotinyl-Met-oxazolone): 1.44
self-aminoacylation (biotinyl-Trp-oxazolone): 2.06
self-aminoacylation (biotinyl-Val-oxazolone): 1.61
self-aminoacylation (biotinyl-Leu-oxazolone): 1.35
self-aminoacylation (biotinyl-Phe-oxazolone): 2.01

AAGUUUAUUAAUAGUCGCAAG [Fam3.1 aminoacylation ribozyme variant]
self-aminoacylation (biotinyl-Ile-oxazolone): 1.74
self-aminoacylation (biotinyl-Met-oxazolone): 1.95
self-aminoacylation (biotinyl-Trp-oxazolone): 1.94
self-aminoacylation (biotinyl-Val-oxazolone): 1.82
self-aminoacylation (biotinyl-Leu-oxazolone): 1.53
self-aminoacylation (biotinyl-Phe-oxazolone): 2.49
